# PMC10786891, “Massively parallel profiling of RNA-targeting CRISPR-Cas13d”
# T1: EsCas13d, nuclease-dead (Eubacterium siraeum, UniProt B0MS50, R295A;H300A;R849A;H854A)
# T1 sequence: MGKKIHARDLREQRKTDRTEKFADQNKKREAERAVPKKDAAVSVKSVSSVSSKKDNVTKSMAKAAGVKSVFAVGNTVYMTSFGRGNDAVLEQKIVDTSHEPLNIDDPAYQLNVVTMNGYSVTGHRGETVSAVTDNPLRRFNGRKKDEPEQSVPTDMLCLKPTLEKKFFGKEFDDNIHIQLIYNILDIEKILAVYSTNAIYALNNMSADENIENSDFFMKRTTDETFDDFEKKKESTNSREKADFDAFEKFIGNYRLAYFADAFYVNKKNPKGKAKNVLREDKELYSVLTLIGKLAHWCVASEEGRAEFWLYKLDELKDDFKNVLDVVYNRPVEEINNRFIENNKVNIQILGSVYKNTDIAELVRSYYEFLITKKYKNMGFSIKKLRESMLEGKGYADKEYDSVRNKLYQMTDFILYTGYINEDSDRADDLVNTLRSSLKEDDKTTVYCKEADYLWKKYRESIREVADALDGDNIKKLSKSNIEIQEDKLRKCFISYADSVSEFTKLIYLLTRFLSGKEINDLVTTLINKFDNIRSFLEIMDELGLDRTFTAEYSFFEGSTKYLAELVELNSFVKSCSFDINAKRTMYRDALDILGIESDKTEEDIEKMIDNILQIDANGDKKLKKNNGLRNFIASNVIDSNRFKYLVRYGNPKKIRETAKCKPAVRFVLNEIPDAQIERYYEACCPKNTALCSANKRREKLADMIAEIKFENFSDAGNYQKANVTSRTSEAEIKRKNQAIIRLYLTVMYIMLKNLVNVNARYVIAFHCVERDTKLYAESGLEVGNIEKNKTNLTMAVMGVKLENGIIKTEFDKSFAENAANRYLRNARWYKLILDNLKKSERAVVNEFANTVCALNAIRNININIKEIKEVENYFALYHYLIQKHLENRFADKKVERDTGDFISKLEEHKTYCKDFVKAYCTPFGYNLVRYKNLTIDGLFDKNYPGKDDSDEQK
# Biological target: T1, EsCas13d, nuclease-dead
# Assay: crRNA (strand 1, pre-loaded); Mg2+; 40 mM Tris-HCl pH 7.5, 150 mM NaCl, 6 mM MgCl2, 1 mM DTT, 0.1% Tween-20, 0.2 mg/ml BSA; 25 C; 10 min per concentration, then washed
# Details: tags: His6-TwinStrep-SUMO cleaved; N-terminal SNAP kept (SNAP-Surface 488); label: 3' end held by stalled T7 RNA polymerase
row,Binder,Kd
1,target 1 MT 5'PFS CUU 3'PFS UAG (mixed) RNA 1: CACCCGUGCAAAAAUGCAGGGGUCUAAAACUGAGCGGAUAACCUCUCUAUGG RNA 2: GGGAAUGGAUCCACAUCUACGAAUUCCUUCCAUAGAGAGGUUAUCCGCUCAUAGAGAUCGGAAGAGCACACGU,~90 nM
2,target 1 MT 5'PFS GUG 3'PFS ACU (mixed) RNA 1: CACCCGUGCAAAAAUGCAGGGGUCUAAAACUGAGCGGAUAACCUCUCUAUGG RNA 2: GGGAAUGGAUCCACAUCUACGAAUUCGUGCCAUAGAGAGGUUAUCCGCUCAACUAGAUCGGAAGAGCACACGU,11.5 ± 0.75 nM
3,target 1 MT 5'PFS GUG 3'PFS ACC (mixed) RNA 1: CACCCGUGCAAAAAUGCAGGGGUCUAAAACUGAGCGGAUAACCUCUCUAUGG RNA 2: GGGAAUGGAUCCACAUCUACGAAUUCGUGCCAUAGAGAGGUUAUCCGCUCAACCAGAUCGGAAGAGCACACGU,12.4 ± 1.1 nM
4,target 1 MT 5'PFS UAC 3'PFS UCC (mixed) RNA 1: CACCCGUGCAAAAAUGCAGGGGUCUAAAACUGAGCGGAUAACCUCUCUAUGG RNA 2: GGGAAUGGAUCCACAUCUACGAAUUCUACCCAUAGAGAGGUUAUCCGCUCAUCCAGAUCGGAAGAGCACACGU,12.5 ± 5 nM
5,target 1 MT 5'PFS UAC 3'PFS UCG (mixed) RNA 1: CACCCGUGCAAAAAUGCAGGGGUCUAAAACUGAGCGGAUAACCUCUCUAUGG RNA 2: GGGAAUGGAUCCACAUCUACGAAUUCUACCCAUAGAGAGGUUAUCCGCUCAUCGAGAUCGGAAGAGCACACGU,21.3 ± 8.05 nM
6,target 1 MT 5'PFS UGG 3'PFS CAU (mixed) RNA 1: CACCCGUGCAAAAAUGCAGGGGUCUAAAACUGAGCGGAUAACCUCUCUAUGG RNA 2: GGGAAUGGAUCCACAUCUACGAAUUCUGGCCAUAGAGAGGUUAUCCGCUCACAUAGAUCGGAAGAGCACACGU,80 ± 32 nM
7,"target 1 insC 3' of 11,insG 3' of 9 (mixed) RNA 1: CACCCGUGCAAAAAUGCAGGGGUCUAAAACUGAGCGGAUAACCUCUCUAUGG RNA 2: GGGAAUGGAUCCACAUCUACGAAUUCGUACCAUAGAGAGGUCUAGUCCGCUCACCGAGAUCGGAAGAGCACACGU",31.8 ± 2 nM
8,target 1 G17C (mixed) RNA 1: CACCCGUGCAAAAAUGCAGGGGUCUAAAACUGAGCGGAUAACCUCUCUAUGG RNA 2: GGGAAUGGAUCCACAUCUACGAAUUCGUACCAUACAGAGGUUAUCCGCUCACCGAGAUCGGAAGAGCACACGU,40 ± 8 nM
9,target 1 MT 5'PFS GUG 3'PFS ACA (mixed) RNA 1: CACCCGUGCAAAAAUGCAGGGGUCUAAAACUGAGCGGAUAACCUCUCUAUGG RNA 2: GGGAAUGGAUCCACAUCUACGAAUUCGUGCCAUAGAGAGGUUAUCCGCUCAACAAGAUCGGAAGAGCACACGU,24.1 ± 2.35 nM
10,target 1 MT 5'PFS GUG 3'PFS GAU (mixed) RNA 1: CACCCGUGCAAAAAUGCAGGGGUCUAAAACUGAGCGGAUAACCUCUCUAUGG RNA 2: GGGAAUGGAUCCACAUCUACGAAUUCGUGCCAUAGAGAGGUUAUCCGCUCAGAUAGAUCGGAAGAGCACACGU,15.4 ± 1.95 nM
11,target 1 MT 5'PFS UCG 3'PFS UGC (mixed) RNA 1: CACCCGUGCAAAAAUGCAGGGGUCUAAAACUGAGCGGAUAACCUCUCUAUGG RNA 2: GGGAAUGGAUCCACAUCUACGAAUUCUCGCCAUAGAGAGGUUAUCCGCUCAUGCAGAUCGGAAGAGCACACGU,~50 nM
12,target 1 MT 5'PFS GUG 3'PFS ACG (mixed) RNA 1: CACCCGUGCAAAAAUGCAGGGGUCUAAAACUGAGCGGAUAACCUCUCUAUGG RNA 2: GGGAAUGGAUCCACAUCUACGAAUUCGUGCCAUAGAGAGGUUAUCCGCUCAACGAGAUCGGAAGAGCACACGU,15.4 ± 1 nM
13,target 1 MT 5'PFS GGG 3'PFS UGU (mixed) RNA 1: CACCCGUGCAAAAAUGCAGGGGUCUAAAACUGAGCGGAUAACCUCUCUAUGG RNA 2: GGGAAUGGAUCCACAUCUACGAAUUCGGGCCAUAGAGAGGUUAUCCGCUCAUGUAGAUCGGAAGAGCACACGU,43 ± 7.5 nM
14,target 1 MT 5'PFS GGU 3'PFS UUC (mixed) RNA 1: CACCCGUGCAAAAAUGCAGGGGUCUAAAACUGAGCGGAUAACCUCUCUAUGG RNA 2: GGGAAUGGAUCCACAUCUACGAAUUCGGUCCAUAGAGAGGUUAUCCGCUCAUUCAGAUCGGAAGAGCACACGU,36 ± 6 nM
15,target 1 MT 5'PFS AGA 3'PFS UAC (mixed) RNA 1: CACCCGUGCAAAAAUGCAGGGGUCUAAAACUGAGCGGAUAACCUCUCUAUGG RNA 2: GGGAAUGGAUCCACAUCUACGAAUUCAGACCAUAGAGAGGUUAUCCGCUCAUACAGAUCGGAAGAGCACACGU,40 ± 17 nM
16,target 1 MT 5'PFS CGC 3'PFS UCG (mixed) RNA 1: CACCCGUGCAAAAAUGCAGGGGUCUAAAACUGAGCGGAUAACCUCUCUAUGG RNA 2: GGGAAUGGAUCCACAUCUACGAAUUCCGCCCAUAGAGAGGUUAUCCGCUCAUCGAGAUCGGAAGAGCACACGU,~76 nM
17,"target 1 insC 3' of 9,insA 3' of 5 (mixed) RNA 1: CACCCGUGCAAAAAUGCAGGGGUCUAAAACUGAGCGGAUAACCUCUCUAUGG RNA 2: GGGAAUGGAUCCACAUCUACGAAUUCGUACCAUAGAGAGGUUACUCCGACUCACCGAGAUCGGAAGAGCACACGU",5.89 ± 0.35 nM
18,target 1 MT 5'PFS GUG 3'PFS GAA (mixed) RNA 1: CACCCGUGCAAAAAUGCAGGGGUCUAAAACUGAGCGGAUAACCUCUCUAUGG RNA 2: GGGAAUGGAUCCACAUCUACGAAUUCGUGCCAUAGAGAGGUUAUCCGCUCAGAAAGAUCGGAAGAGCACACGU,12.9 ± 1.4 nM
19,target 1 MT 5'PFS AGA 3'PFS UAG (mixed) RNA 1: CACCCGUGCAAAAAUGCAGGGGUCUAAAACUGAGCGGAUAACCUCUCUAUGG RNA 2: GGGAAUGGAUCCACAUCUACGAAUUCAGACCAUAGAGAGGUUAUCCGCUCAUAGAGAUCGGAAGAGCACACGU,35.5 ± 14 nM
20,target 1 MT 5'PFS GGG 3'PFS UGC (mixed) RNA 1: CACCCGUGCAAAAAUGCAGGGGUCUAAAACUGAGCGGAUAACCUCUCUAUGG RNA 2: GGGAAUGGAUCCACAUCUACGAAUUCGGGCCAUAGAGAGGUUAUCCGCUCAUGCAGAUCGGAAGAGCACACGU,12.8 ± 1.3 nM
21,target 1 MT 5'PFS GAA 3'PFS CGA (mixed) RNA 1: CACCCGUGCAAAAAUGCAGGGGUCUAAAACUGAGCGGAUAACCUCUCUAUGG RNA 2: GGGAAUGGAUCCACAUCUACGAAUUCGAACCAUAGAGAGGUUAUCCGCUCACGAAGAUCGGAAGAGCACACGU,~85 nM
22,target 1 MT 5'PFS GGG 3'PFS UGA (mixed) RNA 1: CACCCGUGCAAAAAUGCAGGGGUCUAAAACUGAGCGGAUAACCUCUCUAUGG RNA 2: GGGAAUGGAUCCACAUCUACGAAUUCGGGCCAUAGAGAGGUUAUCCGCUCAUGAAGAUCGGAAGAGCACACGU,24.5 ± 4 nM
23,"target 1 G5U,A14G (mixed) RNA 1: CACCCGUGCAAAAAUGCAGGGGUCUAAAACUGAGCGGAUAACCUCUCUAUGG RNA 2: GGGAAUGGAUCCACAUCUACGAAUUCGUACCAUAGAGGGGUUAUCCUCUCACCGAGAUCGGAAGAGCACACGU",68 ± 7 nM
24,target 1 MT 5'PFS AGA 3'PFS UAA (mixed) RNA 1: CACCCGUGCAAAAAUGCAGGGGUCUAAAACUGAGCGGAUAACCUCUCUAUGG RNA 2: GGGAAUGGAUCCACAUCUACGAAUUCAGACCAUAGAGAGGUUAUCCGCUCAUAAAGAUCGGAAGAGCACACGU,45 ± 20 nM
25,target 1 MT 5'PFS GUG 3'PFS GAC (mixed) RNA 1: CACCCGUGCAAAAAUGCAGGGGUCUAAAACUGAGCGGAUAACCUCUCUAUGG RNA 2: GGGAAUGGAUCCACAUCUACGAAUUCGUGCCAUAGAGAGGUUAUCCGCUCAGACAGAUCGGAAGAGCACACGU,17.2 ± 2.9 nM
26,target 1 MT 5'PFS GCU 3'PFS CUG (mixed) RNA 1: CACCCGUGCAAAAAUGCAGGGGUCUAAAACUGAGCGGAUAACCUCUCUAUGG RNA 2: GGGAAUGGAUCCACAUCUACGAAUUCGCUCCAUAGAGAGGUUAUCCGCUCACUGAGAUCGGAAGAGCACACGU,92 ± 34 nM
27,target 1 MT 5'PFS CCG 3'PFS ACU (mixed) RNA 1: CACCCGUGCAAAAAUGCAGGGGUCUAAAACUGAGCGGAUAACCUCUCUAUGG RNA 2: GGGAAUGGAUCCACAUCUACGAAUUCCCGCCAUAGAGAGGUUAUCCGCUCAACUAGAUCGGAAGAGCACACGU,~4.9 nM
28,target 1 MT 5'PFS GUG 3'PFS GAG (mixed) RNA 1: CACCCGUGCAAAAAUGCAGGGGUCUAAAACUGAGCGGAUAACCUCUCUAUGG RNA 2: GGGAAUGGAUCCACAUCUACGAAUUCGUGCCAUAGAGAGGUUAUCCGCUCAGAGAGAUCGGAAGAGCACACGU,18.8 ± 2.25 nM
